In patent US6258776A, “Calcium-regulated kinase” (priority 1997, dated 2001):
Entries after “also recorded” stand apart in the source; their conditions may differ.

What was measured:
[1] = test system: HA-Ndr WT; experiment: A23187 treatment of COS-1 cells co-expressing HA-Ndr WT and S100B, Ndr kinase activity; type: cell-based; details: 20 μM A23187
Description: In order to provide direct evidence that Ca^2+ /S100B regulates Ndr activity in vivo, COS-1 cells are co-transfected with expression constructs for Ndr and S100B (pECE-HA-Ndr, which expresses haemaglutinin epitope-tagged Ndr from an SV40 promoter, and pECE-S100B). Two Ndr constructs are used, expressing either wild-type Ndr (Ndr WT) or Ndr lacking the previously identified S100B binding domain (Ndr Δ65-81).Then, the cells are treated for various lengths of time with 20 μM A23187, a calcium ionophore.

[2] = test system: protein phosphatase 1 (PP1); details: 10 nM calyculin A; cited from earlier work
[3] = test system: PP2A; details: 10 nM calyculin A; cited from earlier work
[4] = test system: HA-Ndr WT; details: 10 nM, 1 h
Description: COS-1 cells expressing HA-Ndr WT (as in Example 5) are treated either with solvent alone (Control) or with a panel of cell permeable protein phosphatase inhibitors. The cells are then extracted, HA-Ndr is immunoprecipitated with the anti-HA mAb 12CA5, and the kinase activity of Ndr measured as before, using the peptide substrate.

[5] = target: T1, GST-Ndr (Homo sapiens, UniProt Q15208); experiment: Ndr peptide substrate phosphorylation assay; type: biochemical; details: 0.5 mg/ml peptide, 3 h at 30° C., KKRNRRLSVA = 100%
T1 construct: made in house
Description: When incubated in vitro with Mg-ATP, Ndr incorpora tes phosphate by an intramolecular autophosphorylation mechanism (Millward, T. A., et al., (1995) Proc. Natl. Acad. Sci. USA 92, 5022-5026). […] To develop a convenient in vitro kinase assay for Ndr, an assembled library of synthetic peptides is screened for potential Ndr substrates. 5 μg GST-Ndr WT or GST-Ndr K118A (Miliward, T. A., et al., (1995) Proc. Natl. Acad. Sci. USA 92, 5022-5026), immobilised on 2.5 μl glutathione-agarose beads (Sigma), is assayed in a 25 μl reaction containing 50 mM Tris-HCl pH 7.5, […] MgCl2, 1 mM dithiothreitol, 100 μM [γ-^32 P] ATP (0.3 μCi/μl) and 0.5 mg/ml peptide. After incubation at 3 h at 30° C. (during which time phosphate incorporation into peptides is linear), aliquots of the reaction are spotted onto 2 cm^2 squares of P81 phosphocellulose paper (Whatman), which are then washed 5×5 min in 1% phosphoric acid and once in acetone, before counting in a liquid scintillation counter.
Several peptides are identified which could serve as Ndr substrates (Table 1; SEQ. ID. No. 1 to 31). By comparing the efficiency of phosphorylation of the various peptides, several conclusions regarding the substrate specificity of Ndr can be drawn. […] Secondly, most of the peptides which are detectably phosphorylated contained a basic amino acid at position -6 relative to the phosphoaccepting serine. […] A basic amino acid at -6 is however not sufficient for substrate recognition, since this peptide is also not phosphorylated. Thirdly, a basic residue at -5 appeared to be also important, although not essential, for efficient phosphorylation by Ndr. Basic amino acids at -3, -2 and -7 are also important. Proline at +1 appears to be inhibitory, whilst the presence of amino acids carboxy-terminal to the phosphoacceptor is important, removal of the residue at +2 reducing activity. The best Ndr substrate from these series of peptides is ([…], SEQ. ID. No. 1), and this peptide is used for Ndr kinase assays in subsequent experiments.

[6] = target: T1, GST-Ndr; experiment: GST-Ndr peptide kinase assay with calcium-binding proteins; type: biochemical; details: added together with Ca^2+; 60 min, 30° C.
Description: 1 μg GST-Ndr WT or GST-Ndr K118A, either in solution or immobilised on glutathione-agarose beads, is assayed in a 20 μl reaction containing 20 mM Tris-HCl pH 7.5, 5 mM MgCl2, 1 mM dithiothreitol, 100 μM [γ-^32 P] […] Reactions are supplemented with either 2 mM EGTA or various concentrations of CaCl2. Bovine CaM, bovine S100B (both from Sigma) or recombinant calcium-binding proteins. After incubation at 30° C. for 60 min, aliquots of the reaction are spotted on to P81 phosphocellulose paper and counted as above.
In brief, coding regions are cloned into the PGEMEX expression vector (Promega) and resultant plasmids used to transform E. coli BL-21 LysS cells. After induction, S100 proteins are purified by ammonium sulphate precipitation followed by Ca^2+ -dependent phenyl-Sepharose chromatography.
The proteins are added together with Ca^2+ into GST-N dr peptide kinase assays. The proteins tested comprised S100A1 (S100α), S100A2 (S100L), S100A4 (CAPL), S100A6 (calcyclin) and S100B (S100β); α-parvalbumin is included as a negative control.
In order to estimate the binding affinity of S100B for Ndr, kinase assays are performed in which GST-Ndr is mixed with various concentrations of purified bovine S100B homodimer, in the presence or absence of calcium.
To determine whether activation of Ndr by S100B occurs at physiological Ca^2+ concentrations, Ndr activity is assayed with or without added S100B over a range of Ca^2+ concentrations.

[7] = test system: Ndr; details: transphosphorylation; cited from earlier work
[8] = test system: S100B; experiment: co-immunoprecipitation of Ndr with anti-S100B from COS-1 cells; type: cell-based; details: co-expressed with S100B
Description: For expression of Ndr and S100B in mammalian cells, the cDNAs encoding Ndr and S100B are cloned into the pECE vector, which directs expression driven by an SV40-derived promoter. In addition, an amino-terminal truncation mutant of Ndr lacking the first 84 amino acids (1-84) is used.
The plasmids encoding Ndr and S100B are transfected into COS-1 cells, either alone or in combination. Seventy-two hours later, cells extracts are prepared and immunoprecipitated with an antibody recognising S100B. In an anti-Ndr western blot of the cell extracts, it is shown that Ndr is expressed an expected.

[9] = immune complex kinase assay, basal kinase activity of Ndr mutants; type: biochemical; details: compared with wild-type Ndr
Description: In immune complex kinase assays and autophosphorylation assays (see below), COS-1 cells are transfected as described above or with pECE-Ndr-K118A. After 72 h, cells are washed with ice-cold PBS and lysed in lysis buffer (20 mM Tris-HCl pH 8.0, 150 mM NaCl, 1% (v/v) NP-40, 10% (v/v) glycerol, 5 mM EDTA, 0.5 mM EGTA, 0.5 mM phenylmethyl-sulfonyl fluoride, 4 μM leupeptin, 1 mM benzamidine, 1 μM microcystin and 1 mM Na3 VO4). Lysates are centrifuged at 14,000 g for 20 min. Duplicate aliquots of supernatant (250 μg, 2.5 mg/ml) are incubated for 2 h at 0° C. with 10 μg/ml Ab^1-465. Immune complexes are precipitated by addition of 2 μl protein A-Sepharose (Pharmacia) and mixing for 1 h. The beads are then washed twice with lysis buffer, once with lysis buffer containing 1 M NaCl, with lysis buffer again, and finally twice with 20 mM Tris-HCl pH 7.5. Beads are resuspended in 30 μl buffer containing 20 mM Tris-HCl pH 7.5, 10 mM MgCl2, 100 μM CaCl2, 1 mM dithiothreitol, 100 μM [γ-^32 P] ATP (0.5 μCi/μls), 1 mM Ndr substrate peptide ([…], SEQ. ID. No. 1), 1 μM cAMP-dependent protein kinase inhibitor peptide (PKI; purchased from Bachem, Bubendorf, Swit zerland), 4 μM leupeptin, 1 mM benzamidine, 1 μM microcystin and, in some assays, 20 μM bovine S100B. After 60 min at 30° C., phosphate incorporation into the peptide is quantitated as described above. […]

[10] = test system: calmodulin (CaM-agarose); experiment: binding of Ndr and deletion mutants from COS-1 cell lysates to CaM-agarose; details: lysates supplemented with Ca^2+
Description: In addition, the ability of untagged Ndr to interact with CaM is investigated. COS-1 cells are transfected with pECE or with derivative plasmids encoding wild-type Ndr, NdrΔ65-81 or NdrΔ1-84 (Millward, T. A., et al., (1995) Proc. Natl. Acad. Sci. USA 92, 5022-5026) using DEAE-dextran (Seed, B. and Aruffo, A. (1987) Proc. Natl. Acad. Sci. USA 84, 3365-3369). Seventy-two hours after transfection, cells are scraped into ice-cold phosphate-buffered saline (PBS), spun down, and disrupted in buffer A (TBS containing 1 mM dithiothreitol, 0.5 mM phenylmethylsulfonyl fluoride, 4 μM leupeptin and 1 mM benzamidine) using a tight-fitting all-glass dounce homogenizer. Extracts (20 μg) are adjusted to 1 mg/ml, supplemented with either 1 mM CaCl2 or 1 mM EGTA and then mixed for 2 h with 6 μl CaM-agarose. After washing three times with 1 ml of the corresponding binding buffer, the beads are eluted with buffer A containing 5 mM EGTA. Equal portions of the unbound and EGTA-eluted fractions are analysed by immunoblofting with anti-Ndr antibodies.
Samples are separated by SDS-PAGE and electroblotted to Immobilon-P membranes (Millipore). Blots are incubated in blocking buffer (50 mM Tris-HCl pH 7.5, 150 mM NaCl, 1% (v/v) Triton X-1 00, 0.5% (v/v) Tween 20, 5% (w/v) skim milk powder) and then probed for 2 h with primary antibodies diluted in the same buffer. Ndr and GST-Ndr are detected with Ab^452-465 at 4 μg/ml (Millward, T. A., et al., Op. Cit.); GST is detected with an anti-GST antiserum (1 :1000 dilution). Bound antibodies are detected using horseradish peroxidase-conjugated donkey anti-rabbit IgG antibodies and ECL substrates (Amersham).
To verify whether this domain of Ndr is indeed responsible for its interaction with CaM, deletion mutants of Ndr are expressed in COS-1 cells and tested for CaM binding as above. […] In lysates supplemented with Ca^2 , deletion of amino acids 65-81 cause a large reduction in CaM binding (to ~10% of the level of wild-type binding) as assessed by western blotting.

T1 sequence (Q15208 whole entry): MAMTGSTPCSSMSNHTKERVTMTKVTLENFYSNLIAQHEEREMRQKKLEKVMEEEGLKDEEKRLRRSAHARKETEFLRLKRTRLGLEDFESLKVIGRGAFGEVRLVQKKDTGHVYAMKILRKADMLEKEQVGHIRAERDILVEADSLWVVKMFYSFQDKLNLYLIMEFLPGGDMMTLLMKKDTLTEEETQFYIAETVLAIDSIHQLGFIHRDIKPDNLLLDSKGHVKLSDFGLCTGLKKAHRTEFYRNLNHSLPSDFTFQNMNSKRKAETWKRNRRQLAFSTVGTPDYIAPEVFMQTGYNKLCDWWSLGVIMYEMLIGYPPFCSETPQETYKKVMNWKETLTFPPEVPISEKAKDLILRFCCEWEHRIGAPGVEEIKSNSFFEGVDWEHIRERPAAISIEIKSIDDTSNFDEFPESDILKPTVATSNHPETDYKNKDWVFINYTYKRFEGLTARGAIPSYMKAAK

Molecule: CNc1ccc2oc(C[C@H]3O[C@@]4(CC[C@H]3C)O[C@H]([C@H](C)C(=O)c3ccc[nH]3)[C@H](C)C[C@H]4C)nc2c1C(=O)O [A23187]
- activation of HA-Ndr [1]: activation of HA-Ndr WT

Molecule: COC[C@@H]([C@H](O)[C@H](O)C(=O)NCC[C@H](C)c1nc(/C=C/C[C@@H]2O[C@]3(C[C@@H](O)[C@@H]2C)O[C@H]([C@H](C[C@H](O)[C@H](C)[C@H](O)[C@H](C)/C=C(C)/C(C)=C/C=C/C(C)=C\C#N)OC)[C@H](OP(=O)(O)O)C3(C)C)co1)N(C)C [calyculin A]
- inhibition of PP1 [2]: ~ 50%
- inhibition of PP2A [3]: ~ 50%
- activation of Ndr [4]: ~ 4 fold

Molecule: AARNRTLSVA [SEQ. ID. No. 7]
- Relative Ndr Activity [5]: 0%

Molecule: KARNRRLSVA (LARNRRLSVA) [SEQ. ID. No. 2]
- Relative Ndr Activity [5]: 39%

Molecule: KKLNRRLSVA [SEQ. ID. No. 3]
- Relative Ndr Activity [5]: 18%

Molecule: KKRNARLSVA [SEQ. ID. No. 4]
- Relative Ndr Activity [5]: 15%

Molecule: KKRNRALSVA [SEQ. ID. No. 5]
- Relative Ndr Activity [5]: 30%

Molecule: KKRNRRLSVA [SEQ. ID. No. 1]
- Relative Ndr Activity [5]: 100%

Molecule: KKRNRTLSPA [SEQ. ID. No. 10]
- Relative Ndr Activity [5]: 0%

Molecule: KKRNRTLSV [SEQ. ID. No. 8]
- Relative Ndr Activity [5]: 24%

Molecule: KKRNRTLSVA [SEQ. ID. No. 6]
- Relative Ndr Activity [5]: 60%

Molecule: KKRNRTLTV [SEQ. ID. No. 9]
- Relative Ndr Activity [5]: 0%

Molecule: S100A1: S100 family protein, phylogenetically the closest known relative of S100B
- increase in Ndr kinase activity [6]: 2-3 fold

Molecule: casein
- substrate of Ndr [7]: not substrates of Ndr

Molecule: myelin basic protein
- substrate of Ndr [7]: not substrates of Ndr

Molecule: Δ1-84: Ndr deletion mutant lacking the complete amino terminal domain
- co-immunoprecipitation with anti-S100B [8]: abolishes co-immunoprecipitation
- basal kinase activity [9]: only slightly reduced; also recorded: reduced basal kinase activity
- binding to CaM-agarose [10]: no longer detectable
